Columns and labels:
[1] = target: T1, recombinant human Siglec-7 protein (human, UniProt Q9Y286 19-353, limits assumed); test: SPR, titration of anti-Siglec-7 on recombinant human Siglec-7 protein (FIG. 16B)
T1 construct: Used in ELISA, Western blot and SPR

[2] = target: T2, human Siglec-7 on cells (HEK293T-Siglec7 cells; human NK cells and other PBMC populations) (human, UniProt Q9Y286 19-467); test: cell-based or functional assay
[3] = target: T1, recombinant human Siglec-7 protein; test: SPR, 'Binding of DB7.2 to Siglec-7' [panel B]
[4] = target: T1, recombinant human Siglec-7 protein; test: ELISA on recombinant human Siglec-7, dilution series (axis 'Dilutions', no concentration unit) [panel A]
[5] = target: T2, human Siglec-7 on cells …; test: flow cytometry on HEK293T-Siglec-7 cells, GFP against Siglec-7 staining [panel B]
Source text: For the non-conjugated primary antibodies, PE-secondary anti-human (H+L) (Invitrogen) and PE/AF647-secondary anti-human F(ab′)₂ (Jackson ImmunoResearch Laboratories Inc) were used. Live/Dead Violet viability kit (Invitrogen) was used to exclude dead cells from analysis. For Fluorescence cytometry staining on PBMCs, the following antibodies were used: CD69 PE-Cy5 (clone FN50), PD-1 BV421 (clone EH12.2H7), CCR7 APC-Cy7 (G043H7), CD19 BV785 (clone HIB19), CD27 BV650 (clone 0323), CD56 BV570 (clone HCD56), CD16 BV711 (clone 3G8), CD21 PE-Cy7 (clone BU32) and Siglec-7 (clone 6-434) from Biolegend; CD11c BUV395 (clone B-ly6), CXCR5 BV750 (clone RF8B2), CD3 BUV805 (UCHT1), CD45 AF700 (clone HI30), CD127 PE-CF594 (clone HIL-7RM21), CD25 BUV737 (clone 2A3), CD8 BUV496 (clone RPA-T8), HLA-DR BV605 (clone G46-6), CD38 BUV661 (clone HIT2), CD14 BV480 (clone MP9), CD45RA BUV563 (HI100), CD4 BB790 (clone SK3), CD15 FITC (clone HI98), CD103 BB700 (clone Ber-ACT8), CD161 APC (clone DX12) from BD Biosciences. […] Cells were washed with PBS and incubated with 0, 1 or 10 ug/ml of DB7.2 Siglec-7 antibody diluted in fluorescence-activated cell sorting (FACS) buffer for 20 minutes. […]

T2 sequence (Q9Y286 19-467): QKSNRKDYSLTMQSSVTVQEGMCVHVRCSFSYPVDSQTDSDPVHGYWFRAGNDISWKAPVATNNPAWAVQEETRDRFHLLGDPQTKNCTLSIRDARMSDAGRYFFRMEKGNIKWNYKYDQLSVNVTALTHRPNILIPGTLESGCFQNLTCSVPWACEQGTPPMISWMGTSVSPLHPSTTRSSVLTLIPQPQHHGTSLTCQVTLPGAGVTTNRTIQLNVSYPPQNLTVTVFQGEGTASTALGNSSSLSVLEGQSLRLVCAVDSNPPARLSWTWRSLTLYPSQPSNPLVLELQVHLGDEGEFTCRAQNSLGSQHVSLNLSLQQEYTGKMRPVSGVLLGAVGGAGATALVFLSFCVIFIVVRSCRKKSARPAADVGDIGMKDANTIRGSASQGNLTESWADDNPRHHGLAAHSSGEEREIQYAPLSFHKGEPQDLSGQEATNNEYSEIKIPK
T1 sequence (Q9Y286 19-353 limits assumed): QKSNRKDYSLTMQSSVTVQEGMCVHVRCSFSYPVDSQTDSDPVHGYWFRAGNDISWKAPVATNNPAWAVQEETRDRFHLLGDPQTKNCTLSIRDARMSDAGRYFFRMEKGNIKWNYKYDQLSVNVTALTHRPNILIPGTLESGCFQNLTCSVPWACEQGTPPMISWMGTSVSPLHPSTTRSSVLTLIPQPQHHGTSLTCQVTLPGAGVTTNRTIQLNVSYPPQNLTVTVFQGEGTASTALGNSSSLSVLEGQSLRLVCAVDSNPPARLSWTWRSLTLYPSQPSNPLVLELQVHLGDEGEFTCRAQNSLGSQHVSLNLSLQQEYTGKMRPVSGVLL

binding result [4] | binding result [5] | Binder | IC50, killing of OVISE cells in the presence of human PBMCs (xCELLigence, cell index vs dose at 72 h) [2] [nM] | also measured
– | – | DB7.2 (DB-S7-2) Siglec-7 MAb (antibody, human IgG1, V domains shown, Expressed as human IgG1; The VH is the same as that of DB-S7-1 and DB-S7-7; also called DB7.2 Siglec-7 DMAb; DB7.2 anti-Siglec-7 antibody) VH: QVQLVESGGGVVQPGRSLRLSCAASGFTFRTDAMHWVRQAPGKGLEWVAVIWYDGSIKYHADSVKGRFTISRDNSKNTLYLEMNSLRAEDTAVYYCARDRSNSLDHWGQGILVSVSS VL: not shown | 82.7 | Kd [1]: 0.044 nM; EC50, killing of PEO4 cells in the presence of human PBMCs (xCELLigence) [2]: 68.9 nM; koff [3]: 3.6e-05 s⁻¹; kon [3]: 830000 M⁻¹ s⁻¹; t1/2 [3]: 5.33 h
– | – | DB7.2_TM Mod (antibody, human IgG1, V domains shown) VH: QVQLVESGGGVVQPGRSLRLSCAASGFTFRTDAMHWVRQAPGKGLEWVAVIWYDGSIKYHADSVKGRFTISRDNSKNTLYLEMNSLRAEDTAVYYCARDRSNSLDHWGQGILVSVSS VL: not shown | 192 | –
binds | binds | DB7.1 (DB-S7-1) Siglec-7 MAb (antibody, human IgG1, V domains shown, Expressed as human IgG1 (HC + LC plasmids in pVax1, Expi293F cells)) VH: QVQLVESGGGVVQPGRSLRLSCAASGFTFRTDAMHWVRQAPGKGLEWVAVIWYDGSIKYHADSVKGRFTISRDNSKNTLYLEMNSLRAEDTAVYYCARDRSNSLDHWGQGILVSVSS VL: not shown | – | –
binds | binds | DB7.7 (DB-S7-7) Siglec-7 MAb (antibody, human IgG1, V domains shown, Expressed as human IgG1) VH: QVQLVESGGGVVQPGRSLRLSCAASGFTFRTDAMHWVRQAPGKGLEWVAVIWYDGSIKYHADSVKGRFTISRDNSKNTLYLEMNSLRAEDTAVYYCARDRSNSLDHWGQGILVSVSS VL: not shown | – | –

Reference: patent publication US20250236670A1 (WISTAR INSTITUTE OF ANATOMY AND BIOLOGY, published 2025)
